Experimental data reported in patent publication US20190248848A1 (published 2019).

Tests used:
[1] = molecular target: T1, biotinylated histone H3 peptide trimethylated at lysine 27, H3K27me3 (21-44) (UniProt P68431 22-45, trimethyl-lysine at K27; biotinylated); experiment: peptide microspot array; apparent Kd; 20 uM H3K27me3; replicate 2
[2] = molecular target: T1, biotinylated histone H3 peptide …; experiment: peptide microspot array; apparent Kd; 10 uM H3K27me3; replicate 3
[3] = molecular target: T1, biotinylated histone H3 peptide …; experiment: peptide microspot array; apparent Kd; 20 uM H3K27me3; replicate 3
[4] = molecular target: T1, biotinylated histone H3 peptide …; experiment: peptide microspot array; apparent Kd; 10 uM H3K27me3; replicate 2
[5] = molecular target: T1, biotinylated histone H3 peptide …; experiment: peptide microspot array; apparent Kd; 10 uM H3K27me3; replicate 1
[6] = molecular target: T1, biotinylated histone H3 peptide …; experiment: peptide microspot array; apparent Kd; 50 uM H3K27me3; replicate 2
[7] = molecular target: T1, biotinylated histone H3 peptide …; experiment: peptide microspot array; apparent Kd; 50 uM H3K27me3; replicate 1

B1: PcTF, monovalent Polycomb-based transcription factor (pET28 construct, purified from E. coli) (designed binder)
chain: MELSAVGERVFAAEALLKRRIRKGRMEYLVKWKGWSQKYSTWEPEENILDARLLAAFEERER
Question: With B1 as the binder, how does the Kd [1] read?
Answer: The Kd was 5.66 µM.

Question: And the Kd [2]?
Answer: The Kd was 7.6 µM.

Question: And the Kd [3]?
Answer: The Kd was 6.45 µM.

Question: And the Kd [4]?
Answer: The Kd was 1.55 µM.

Question: What about the Kd [5] of the same binder?
Answer: Its Kd is 1.54 µM.

Question: What about the Kd [6] of the same binder?
Answer: Its Kd is 7.73 µM.

Question: What about the Kd [7] of the same binder?
Answer: The Kd was 3.5 µM.
